Measurements: article PMC8205012, “Novel CD123 polyaptamer hydrogel edited by Cas9/sgRNA for AML-targeted therapy”

Molecular target: Cas9 (UniProt Q99ZW2 1-1368)
Assay: flow cytometry, Cas9 beads; Cell binding: 1e5 cells, 50 nM (flow) or 5 uM (confocal) FAM-DNA, 37 C, 30 min, PBS wash; bead assays: beads washed in PBS, binding buffer and temperature not stated
Conditions: protein: commercial; label: FAM

Cas9, sequence (Q99ZW2 whole entry): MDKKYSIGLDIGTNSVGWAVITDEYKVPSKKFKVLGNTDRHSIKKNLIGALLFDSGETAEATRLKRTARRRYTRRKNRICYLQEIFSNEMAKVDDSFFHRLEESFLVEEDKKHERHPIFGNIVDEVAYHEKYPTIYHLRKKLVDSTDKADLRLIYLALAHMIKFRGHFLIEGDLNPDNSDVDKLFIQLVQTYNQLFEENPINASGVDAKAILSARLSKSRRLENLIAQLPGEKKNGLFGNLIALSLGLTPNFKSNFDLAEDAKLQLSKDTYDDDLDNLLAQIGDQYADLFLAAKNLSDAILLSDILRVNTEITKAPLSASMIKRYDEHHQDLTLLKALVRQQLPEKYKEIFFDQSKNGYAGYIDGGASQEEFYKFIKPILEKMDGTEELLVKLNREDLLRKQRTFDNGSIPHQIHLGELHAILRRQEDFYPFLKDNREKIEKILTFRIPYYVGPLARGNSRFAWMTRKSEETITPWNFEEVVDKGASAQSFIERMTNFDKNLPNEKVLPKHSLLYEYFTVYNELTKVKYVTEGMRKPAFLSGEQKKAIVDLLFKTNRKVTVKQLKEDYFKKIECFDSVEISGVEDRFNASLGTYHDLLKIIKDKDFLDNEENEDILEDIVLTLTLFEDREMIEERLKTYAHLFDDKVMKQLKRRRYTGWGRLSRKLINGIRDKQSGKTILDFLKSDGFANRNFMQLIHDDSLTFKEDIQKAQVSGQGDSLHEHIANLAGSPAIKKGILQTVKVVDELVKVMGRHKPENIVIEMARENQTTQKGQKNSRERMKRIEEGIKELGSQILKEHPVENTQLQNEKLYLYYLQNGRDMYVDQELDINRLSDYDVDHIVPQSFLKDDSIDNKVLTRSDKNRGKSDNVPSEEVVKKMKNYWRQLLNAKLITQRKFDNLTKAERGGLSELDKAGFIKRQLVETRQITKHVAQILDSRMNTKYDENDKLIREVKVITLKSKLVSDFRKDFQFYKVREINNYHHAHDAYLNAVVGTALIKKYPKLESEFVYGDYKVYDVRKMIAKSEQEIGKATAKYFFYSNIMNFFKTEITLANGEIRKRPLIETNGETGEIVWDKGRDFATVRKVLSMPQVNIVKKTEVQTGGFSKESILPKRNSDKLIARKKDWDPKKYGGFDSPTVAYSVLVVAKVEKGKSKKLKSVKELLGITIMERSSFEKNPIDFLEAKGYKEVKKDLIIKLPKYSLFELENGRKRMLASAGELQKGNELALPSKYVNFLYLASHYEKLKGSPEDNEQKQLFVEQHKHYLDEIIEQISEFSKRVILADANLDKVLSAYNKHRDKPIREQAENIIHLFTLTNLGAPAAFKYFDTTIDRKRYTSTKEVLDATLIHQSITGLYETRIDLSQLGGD

B1: sgRNA (structured_RNA)
RNA: GGUGGUGCAGAUGAACUUCAGUUUUAGAGCUAGAAAUAGCAAGUUAAAAUAAGGCUAGUCCGUUAUCAACUUGAAAAAGUGGCACCGAGUCGGUGCUUUU
binding result: binds
